Drawing on paper PMC12901311, “HEXIM1 inter-monomer autoinhibition governs 7SK RNA binding specificity and P-TEFb inactivation” (Nature Communications, 2024), this text covers binding result, Kd and binding signal for 2 molecules.

Series [1] concerns the target Hexim1 BR-L-AR(S183C-MTSL) (human, UniProt O94992 142-253, S183C). Nature of the series: NMR (PRE); 1:1.2 protein:RNA; intensity recovery outside BR; ITC: 20 mM HEPES pH 7.5, 150 mM KCl, 1 mM TCEP, 295 K; NMR: 50 mM Na phosphate pH 6.2, 150 mM KCl, 0.02% NaN3, 5% D2O, 298 K; EMSA: binding buffer (20 mM HEPES). To be noted: protein: recombinant; tags: MBP-His6 removed by TEV; non-native N-terminal G; MTSL spin label at C183; hairpin with U40U41 and U63 bulges.

A further series concerns the target Hexim1 NBLA-S158EE (human, UniProt O94992 1-157+=EE+159-253, internal_change). Nature of the series: ITC; N=0.74; ITC: 20 mM HEPES pH 7.5, 150 mM KCl, 1 mM TCEP, 295 K; NMR: 50 mM Na phosphate pH 6.2, 150 mM KCl, 0.02% NaN3, 5% D2O, 298 K; EMSA: binding buffer (20 mM HEPES). To be noted: protein: recombinant; hairpin with U40U41 and U63 bulges.
The target of another series is Hexim1-deltaPYNT (human, UniProt O94992 1-201+206-359, internal_change). Put plainly: ITC; ITC: 20 mM HEPES pH 7.5, 150 mM KCl, 1 mM TCEP, 295 K; NMR: 50 mM Na phosphate pH 6.2, 150 mM KCl, 0.02% NaN3, 5% D2O, 298 K; EMSA: binding buffer (20 mM HEPES). To be noted: protein: recombinant; chain copies: 2; hairpin. (ITC needs no label: the signal is the heat of the interaction.)
Sequence of Hexim1-deltaPYNT (O94992 other isoform, or with tags, fused parts or gaps | mutant): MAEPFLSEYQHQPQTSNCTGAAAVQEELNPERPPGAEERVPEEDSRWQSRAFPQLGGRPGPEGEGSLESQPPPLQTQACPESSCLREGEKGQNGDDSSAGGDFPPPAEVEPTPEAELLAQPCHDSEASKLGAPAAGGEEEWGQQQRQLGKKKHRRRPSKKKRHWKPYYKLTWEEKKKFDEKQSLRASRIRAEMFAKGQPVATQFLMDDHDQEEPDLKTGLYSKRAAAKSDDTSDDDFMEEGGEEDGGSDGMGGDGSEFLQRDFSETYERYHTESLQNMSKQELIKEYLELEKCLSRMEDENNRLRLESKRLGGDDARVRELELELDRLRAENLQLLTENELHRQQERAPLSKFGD

Sequence of Hexim1 BR-L-AR(S183C-MTSL) (O94992 142-253 S183C): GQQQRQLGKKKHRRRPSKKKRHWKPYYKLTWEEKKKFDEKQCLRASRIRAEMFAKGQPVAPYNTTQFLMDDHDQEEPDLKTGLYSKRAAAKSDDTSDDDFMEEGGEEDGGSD
Sequence of Hexim1 NBLA-S158EE (O94992 other isoform, or with tags, fused parts or gaps): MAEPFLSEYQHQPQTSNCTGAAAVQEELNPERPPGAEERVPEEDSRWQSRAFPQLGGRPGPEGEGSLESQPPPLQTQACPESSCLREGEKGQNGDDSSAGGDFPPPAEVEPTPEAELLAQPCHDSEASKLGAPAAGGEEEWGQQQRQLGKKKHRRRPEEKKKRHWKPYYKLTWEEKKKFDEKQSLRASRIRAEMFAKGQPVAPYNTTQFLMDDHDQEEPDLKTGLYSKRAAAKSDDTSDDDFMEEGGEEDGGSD

B1: 7SK SL1-dI (structured_RNA)
RNA: GGCCAUUGAUCGCCUUCGGGCUGAUCUGGCC
Take B1: the binding result in series [1] is “binds”. In addition, the Kd with Hexim1 NBLA-S158EE was 727 ± 63 nM.

B2: 7SK SL1-p (structured_RNA)
RNA: GGAUGUGAGGGCGAUCUGGCUUCGGCCUUCCUCCCUCACCGCUCCA
In the case of B2, in the series with Hexim1-deltaPYNT, the binding signal is ~5 fold tighter than wild-type Hexim1.

One may read the Kd as the equilibrium constant for the complex coming apart.
